B1: glmS ribozyme (parent)
chain: AUAAAAGCGCCAGAACUACAGAAAUGUAGUUGACGAGGAGGAGGUUUAUCGAAUUUUCGGCGGAUGCCUCCAAA

± gives the standard error. Fewer inactive variants are shown than the library holds.

What all share (conditions): with glucosamine-6-phosphate
The variants in data set [1] derive from B1. The data set can be described thus: self-cleavage kobs at 640 uM GlcN6P; higher = faster cleavage; RNA array. The method in brief: (§1)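 Glucosamine-6-phosphate (40 μM to 10 mM) in HEPES/KCl/Mg(OAc)2 buffer was flowed over sequenced MiSeq chips, and tiles were imaged over ~14 h. Barcoded ribozyme variants there had been transcribed in situ by E. coli RNA polymerase and were tracked through a hybridised Cy3 probe at 37 °C. One- or two-exponential decay fits to per-tile medians, normalised to baseline and to non-cleaving reference variants, gave kobs. kcat and KM came from weighted Michaelis–Menten fits across concentrations.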

The variants in data set [2] derive from B1. The data set can be described thus: self-cleavage kobs at 2500 uM GlcN6P; higher = faster cleavage; RNA array. The method in brief:
as §1

Variants of B1 are the subject of data set [3]. In words: self-cleavage kobs at 10000 uM GlcN6P; higher = faster cleavage; RNA array. The method, boiled down:
as §1

For G7U A53U A64G, the “self-cleavage kobs at 640 uM GlcN6P” value in the data set with glucosamine-6-phosphate [1] is below 1e-05 s⁻¹. Moreover, the “self-cleavage kobs at 2500 uM GlcN6P” value in the data set with glucosamine-6-phosphate [2] is below 1e-05 s⁻¹.

As to G40U G44A C50G C71G, the “self-cleavage kobs at 640 uM GlcN6P” value in the data set with glucosamine-6-phosphate [1] was below 1e-05 s⁻¹. For the same variant, the “self-cleavage kobs at 2500 uM GlcN6P” value in the data set with glucosamine-6-phosphate [2] was below 1e-05 s⁻¹.

With A24C A52U G59A, in the data set with glucosamine-6-phosphate [1], the “self-cleavage kobs at 640 uM GlcN6P” value was below 1e-05 s⁻¹. For the same variant, in the data set with glucosamine-6-phosphate [3], the “self-cleavage kobs at 10000 uM GlcN6P” value was below 1e-05 s⁻¹.

Take G9U C11G G41U: the “self-cleavage kobs at 640 uM GlcN6P” value with glucosamine-6-phosphate [1] is below 1e-05 s⁻¹.

For G7A C16G A48U G60C C70A, the “self-cleavage kobs at 640 uM GlcN6P” value with glucosamine-6-phosphate [1] is below 1e-05 s⁻¹. Moreover, in the data set with glucosamine-6-phosphate [2], the “self-cleavage kobs at 2500 uM GlcN6P” value is below 1e-05 s⁻¹.

As for A15C A33U G40A, the “self-cleavage kobs at 640 uM GlcN6P” value in the data set with glucosamine-6-phosphate [1] is below 1e-05 s⁻¹.

In the case of A15C A48U U49G G62U, in the data set with glucosamine-6-phosphate [1], the “self-cleavage kobs at 640 uM GlcN6P” value is below 1e-05 s⁻¹.

For the variant A33G A48C C68U, the “self-cleavage kobs at 640 uM GlcN6P” value with glucosamine-6-phosphate [1] was below 1e-05 s⁻¹.

On to A6C G9C G32A C50U A53G, for which the “self-cleavage kobs at 640 uM GlcN6P” value with glucosamine-6-phosphate [1] was below 1e-05 s⁻¹. The “self-cleavage kobs at 2500 uM GlcN6P” value with glucosamine-6-phosphate [2] was below 1e-05 s⁻¹.

Consider C8U C10G C67G, for which, in the data set with glucosamine-6-phosphate [1], the “self-cleavage kobs at 640 uM GlcN6P” value amounted to 0.000675 ± 0.00032 s⁻¹.

Regarding C16G U56C C58U, in the data set with glucosamine-6-phosphate [1], the “self-cleavage kobs at 640 uM GlcN6P” value was below 1e-05 s⁻¹.

With C34U G43C, the “self-cleavage kobs at 640 uM GlcN6P” value in the data set with glucosamine-6-phosphate [1] was below 1e-05 s⁻¹.

Regarding G51C U54A U57A, the “self-cleavage kobs at 640 uM GlcN6P” value in the data set with glucosamine-6-phosphate [1] is below 1e-05 s⁻¹. Besides, the “self-cleavage kobs at 2500 uM GlcN6P” value with glucosamine-6-phosphate [2] is below 1e-05 s⁻¹.

U47G A48G G63A: in the data set with glucosamine-6-phosphate [1], the “self-cleavage kobs at 640 uM GlcN6P” value is below 1e-05 s⁻¹.

Turning to G51U G62U C70U, the “self-cleavage kobs at 640 uM GlcN6P” value with glucosamine-6-phosphate [1] is below 1e-05 s⁻¹.

Regarding C16U A33G C50U U54G, the “self-cleavage kobs at 640 uM GlcN6P” value in the data set with glucosamine-6-phosphate [1] is below 1e-05 s⁻¹. For the same variant, in the data set with glucosamine-6-phosphate [2], the “self-cleavage kobs at 2500 uM GlcN6P” value was below 1e-05 s⁻¹. In addition, the “self-cleavage kobs at 10000 uM GlcN6P” value with glucosamine-6-phosphate [3] is below 1e-05 s⁻¹.

Consider A33U G35U U54A, for which the “self-cleavage kobs at 640 uM GlcN6P” value with glucosamine-6-phosphate [1] was below 1e-05 s⁻¹. For the same variant, the “self-cleavage kobs at 10000 uM GlcN6P” value in the data set with glucosamine-6-phosphate [3] is below 1e-05 s⁻¹.

Take C8G C10A G38U A52G: the “self-cleavage kobs at 640 uM GlcN6P” value with glucosamine-6-phosphate [1] was below 1e-05 s⁻¹. Moreover, the “self-cleavage kobs at 2500 uM GlcN6P” value in the data set with glucosamine-6-phosphate [2] was below 1e-05 s⁻¹.

As for C16G U30A U55G, the “self-cleavage kobs at 640 uM GlcN6P” value in the data set with glucosamine-6-phosphate [1] came to 0.000125 ± 5.7e-05 s⁻¹. Besides, the “self-cleavage kobs at 2500 uM GlcN6P” value in the data set with glucosamine-6-phosphate [2] was 8.11e-05 ± 3.1e-05 s⁻¹.

For C16U A39G U55C, the “self-cleavage kobs at 640 uM GlcN6P” value with glucosamine-6-phosphate [1] was found to be 0.0143 ± 0.0027 s⁻¹.

Turning to G9U U56G U65C C67G, the “self-cleavage kobs at 640 uM GlcN6P” value with glucosamine-6-phosphate [1] is below 1e-05 s⁻¹.

C8G A42C U47A: the “self-cleavage kobs at 640 uM GlcN6P” value in the data set with glucosamine-6-phosphate [1] was below 1e-05 s⁻¹. Besides, the “self-cleavage kobs at 2500 uM GlcN6P” value with glucosamine-6-phosphate [2] was below 1e-05 s⁻¹.

For U45G A53G G62A, the “self-cleavage kobs at 640 uM GlcN6P” value with glucosamine-6-phosphate [1] is below 1e-05 s⁻¹. Further, the “self-cleavage kobs at 2500 uM GlcN6P” value in the data set with glucosamine-6-phosphate [2] is below 1e-05 s⁻¹.

For C10U C50U A53C, in the data set with glucosamine-6-phosphate [1], the “self-cleavage kobs at 640 uM GlcN6P” value was below 1e-05 s⁻¹.

Turning to A12G C58G C71U, the “self-cleavage kobs at 640 uM GlcN6P” value with glucosamine-6-phosphate [1] amounted to 9.42e-05 ± 1.7e-05 s⁻¹. Also, in the data set with glucosamine-6-phosphate [2], the “self-cleavage kobs at 2500 uM GlcN6P” value was determined as 3.81e-05 ± 1.2e-05 s⁻¹.

For the variant G37C A52C, the “self-cleavage kobs at 640 uM GlcN6P” value in the data set with glucosamine-6-phosphate [1] is below 1e-05 s⁻¹. The “self-cleavage kobs at 2500 uM GlcN6P” value with glucosamine-6-phosphate [2] was below 1e-05 s⁻¹. In the data set with glucosamine-6-phosphate [3], the “self-cleavage kobs at 10000 uM GlcN6P” value was below 1e-05 s⁻¹.

Take G38A U57A G66U C70A: the “self-cleavage kobs at 640 uM GlcN6P” value with glucosamine-6-phosphate [1] was 6.22e-05 ± 2.6e-05 s⁻¹. The “self-cleavage kobs at 2500 uM GlcN6P” value in the data set with glucosamine-6-phosphate [2] is 6.05e-05 ± 2.3e-05 s⁻¹.

With C16U A39U G66U, the “self-cleavage kobs at 640 uM GlcN6P” value in the data set with glucosamine-6-phosphate [1] turned out to be 0.000779 ± 0.00014 s⁻¹. In addition, the “self-cleavage kobs at 2500 uM GlcN6P” value with glucosamine-6-phosphate [2] stood at 0.00146 ± 0.00036 s⁻¹.

C8G U57G C70U: the “self-cleavage kobs at 640 uM GlcN6P” value with glucosamine-6-phosphate [1] was below 1e-05 s⁻¹. The “self-cleavage kobs at 2500 uM GlcN6P” value in the data set with glucosamine-6-phosphate [2] is below 1e-05 s⁻¹.

Take G43U C67G C70A: in the data set with glucosamine-6-phosphate [1], the “self-cleavage kobs at 640 uM GlcN6P” value was below 1e-05 s⁻¹.

As for G13U G63A C71U, the “self-cleavage kobs at 640 uM GlcN6P” value with glucosamine-6-phosphate [1] was below 1e-05 s⁻¹. Also, the “self-cleavage kobs at 2500 uM GlcN6P” value with glucosamine-6-phosphate [2] is below 1e-05 s⁻¹.

Values taken from the supplement of paper PMC7125110.
